{
  "source": "paper PMC5120205",
  "target": "recombinant full-length IsdB, Q2FHV2",
  "assay": "ELISA",
  "details": "chain shown with the change",
  "data": [
    {"binder": "D4-10-N1 antibody (human IgG) H:Y52A; H:F53A (protein) chain 1: QVQLQESGPGLVKPSETLSLICTVSGGSISSSSYYWGWIRQTPERNLEWIGIIAASGTTYYNPSLQSRVSMSLDRSTNRFSLRLSSVTAADTAIYYCAKPKSRDRGGPGDDYFGMDVWGQGIMVTVSS chain 2: DIQLTQSPSFLSASVADRVTITCRASQAVRSSLAWYQQKPGKAPQLLIYSASTLENGVSSRFSGSGPGTEFTLTISSLQPEDVGTYYCQQLNTYPFTFGPGTKVEIK", "values": [
      {"measurement": "percent of parent", "value": 9, "unit": "%"}
    ]}
  ]
}
